Experimental data as given in patent US20180305451A1 (COMPUGEN, published 2018).

T1: human HIDE1 (human, UniProt A8MVS5 20-230)
T1 construct: Endogenous on U937, HL-60, THP-1 cells, blood monocytes, AML blasts and dendritic cells; also called C19orf38; hHIDE1
T1 sequence: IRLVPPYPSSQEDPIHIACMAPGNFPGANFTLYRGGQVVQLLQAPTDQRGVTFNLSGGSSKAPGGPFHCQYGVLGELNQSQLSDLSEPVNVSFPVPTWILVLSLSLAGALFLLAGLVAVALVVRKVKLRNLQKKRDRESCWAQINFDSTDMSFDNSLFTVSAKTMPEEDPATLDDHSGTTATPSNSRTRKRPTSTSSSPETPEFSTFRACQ

T2: mouse HIDE1 (mouse, UniProt Q75VT8 22-222)
T2 construct: Endogenous on EL4, YAC-1, J774A.1/J774A.2 cells; also called AB124611; mHIDE1
T2 sequence: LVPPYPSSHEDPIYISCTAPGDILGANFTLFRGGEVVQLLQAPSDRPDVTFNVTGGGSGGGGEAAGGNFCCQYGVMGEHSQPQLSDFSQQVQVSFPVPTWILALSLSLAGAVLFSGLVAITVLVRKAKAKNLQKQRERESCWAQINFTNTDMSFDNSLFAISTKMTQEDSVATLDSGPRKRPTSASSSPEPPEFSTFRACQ

B1: CPA.12.003 human IgG4 (antibody, V domains shown)
VH: QVQLQESGPGLVTPSETLSLTCTVSGGSISSVSYYWGWVRQPPGKGLEWIGSIYYSGTTAHNPSLKSRVTMAVDTSKNQFSLSLSSVTAADTAVYFCARGWRYYEDYYFDHWGQGTLVTVSS
VL: DIQMTQSPSTLSASVGDRVTITCRASQSINRWLAWYQQKPGKAPKILIYTASSLESGVPSRFSGSGSGTEFTLTISSLQPDDFATYYCQQYNSYPITFGQGTRLEIKR
notes: also called CPA.12.003-H4
B2: CPA.12.004 human IgG4 (antibody, V domains shown)
VH: EVQLVETGGGLIQPGRSLRLSCVASDFRFSNHAMHWVRQAPGKELEWVAVISSDGSNRQYAYSVKGRFTISRDNSKNTLYLEMNILGPEDTAVYFCVRSHLGPEWYYGMDVWGQGTTVTVSS
VL: DIQMTQSPSSLSTSVGDSVTITCRSSQSISTFLSWFQHKPGKAPNLLIYDASSLQSGVPSRFSGSGSGTDFTLTISSLQPEDFATYYCQQSDYLPFTFGPGTKVEIKR
notes: also called CPA.12.004-H4
B3: CPA.12.005 human IgG4 (antibody, V domains shown)
VH: QVQLVESGGGVVQPGRSLRVSCAVSGFTFSSYGMHWVRQAPGGGLEWVAVMSYEGSFRHYADSVKGRFTISRDNSKNTLFLQMDSLRAEDTAVYYCARDRPAGYTSGWGILDYWGQGTLVTVSS
VL: EIVMTQSPATLSLSPGERATLSCRASQSVSSYLAWYQQKPGQAPRLLIYDASNRATGIPARFSGSGSGTDFTLTISSLEPEDFAVYYCQQRSNWPLTFGGGTKVDIKR
notes: also called CPA.12.005-H4
B4: CPA.12.002 human IgG4 (antibody, V domains shown)
VH: EVQLVESGGGLVQPGRSLRLSCAASGFTFSSYAMHWVRQVPGKGLEWVAVISYDGSNKYYADSVKGRFTISRDNSKNTLYLQMNSLRAEDTAVYYCAKPMYSSGWYPLGYWGQGTLVTVSS
VL: DIVMTQTPLSLPVTPGQPASISCRSSQSPLDTDGNTYLDWYLQRPGQSPQLLIYTLSNRASGVPDRFSGSGSGTDFTLKISRVEAEDVGIYYCMQRIQYPLTFGPGTRLEIKR
notes: also called CPA.12.002-H4
B5: CPA.12.001 human IgG4 (antibody, V domains shown)
VH: QVQLVESGGGLVQPGRSLRLSCAASGFTFSSYGMHWVRQAPGKGLEWVAVISYDGSNKYYADSVKGRFTISRDNSKNTLYLQMNSLRAEDTAVYYCASEGVDFWSGLDYWGQGTLVTVSS
VL: QSALTQPRSASGSAGQSVTISCTGTSSDVGGHNYVSWYQQFPGKAPKLLIYEVSHRPSGVPDRFSGSKSGNTASLTVSGLQAEDEADYYCSSYADLNNLMFGGGTKLTVLG
notes: also called CPA.12.001-H4
B6: CPA.12.009 Fab (A10 S398-02.A04) (Fab, V domains shown)
VH: QMQLVQSGAEVKKPGASVKVSCKASGYTFTTHAFSWVRQAPGLGLEWMGWISTYNGNTKYEQKFQGRVTLTTDSSTNTAYMELRSLRSDDTAVYYCVRDSRAFDVWGQGTMVTVSS
VL: DIQLTQSPSFLSASVGDRVTITCRASQGINSYLAWYQQKPGAAPKLLIYAASTLQSGVPSRFSGSGSGTEFTLTISSLQPEDFATYYCQQLNTYPLIFGQGTRLEIKR
notes: XOMA031 library Fab in periplasmic extract
B7: CPA.12.003 Fab (A03 S397-01.A12) (Fab, V domains shown)
VH: B1 VH
VL: B1 VL
notes: as for B6
B8: CPA.12.011 Fab (B03 S400-01.E01) (Fab, V domains shown)
VH: EVQLVESGGGLVQPGGTLRLSCVVSGFTFSSYAMSWVRQAPGKGLEWVSGISGSGGSTYISSGRTYRSTYYADSVKGRFTIARDNSENTLFLQLNSLRAEDTAIYYCAKVNSGEYAHTFDYWGQGTLVTVSS
VL: DIQMTQSPSSLSASVGDRVTITCRASQGISNYLVWYQQKPGKAPKSLIYAASSLQSGVPSRFSGSGSGTDFTLTISSLQPEDFATYYCQQYNYYPITFGQGTRLEIKR
notes: as for B6
B9: CPA.12.004 Fab (A04 S397-01.D06) (Fab, V domains shown)
VH: B2 VH
VL: B2 VL
notes: as for B6
B10: CPA.12.005 Fab (A06 S397-01.H07) (Fab, V domains shown)
VH: B3 VH
VL: B3 VL
notes: as for B6
B11: CPA.12.007 Fab (A08 S398-01.E08) (Fab, V domains shown)
VH: EVQLVESGGGVVQPGESLRLSCAASGFTFSSYGFHWVRQSPGEGLEWLAVISYDGTSKSYADSVKGRFTVSRDNSKETLYLQLSSLRREDTALYYCARDTWGYYYGMDVWGQGTTVTVSS
VL: DIQMTQSPSFLSGSVGDRVSISCRASQDIRSHLAWYQRKPGEAPKLLIYTASSLQGGVPLRFSGSGSGTEFTLTISSLQPEDSATYYCQHLHLYPLTFGGGTKLEIKR
notes: as for B6
B12: CPA.12.014 Fab (B12 S404-01.E06) (Fab, V domains shown)
VH: QVTLKESGPALVTPTQNLTLTCTVSGGSISSSSYYWGWIRQPPGKGLEWIGSIYYSGSTYYNPSLKSRVTISVDTSKNQFSLKLSSVTAADTAVYYCARRRNSSGWFYFDYWGQGTLVTVSS
VL: QSVLTQPPSVSGAPRQRVTISCSGSRSNIGDNAVNWYQHPPGKAPKLLIYYDDLLPSGVSDRFSGSKSGTSASLAISGLQSEDEADYYCATWDDSLNGHVFGTGTKLTVLG
notes: as for B6
B13: CPA.12.002 Fab (A02 S397-01.A08) (Fab, V domains shown)
VH: B4 VH
VL: B4 VL
notes: as for B6
B14: CPA.12.006 Fab (A07 S398-01.D09) (Fab, V domains shown)
VH: EVQLVESGGGVVQPGRSLRLSCAASGFTFSSFAMHWVRQAPGKGPEWLGIILYEGGHVVYADSVRGRLTISRDNSKNTLYLQMDSLRDEDTAVYYCAKGFYHAFDVWGQGTMVTVSS
VL: QAVLTQPASLSASPGASASLTCTLRSGINVGTYRIYWYQQKPGSPPQYLLRYKSDSDKQQGSGVPSRFSGSKDASANAGILLISGLQSEDEADYYCMIWHSSAWVFGGGTQLTVLG
notes: as for B6
B15: CPA.12.001 Fab (A01 S397-01.A04) (Fab, V domains shown)
VH: B5 VH
VL: B5 VL
notes: as for B6

Target: T1, human HIDE1
Assay: FACS titration on 293T-huHIDE1 cells, human IgG4 (preliminary FACS KD)
Method: (§1) FACS screening of reformatted IgG4 antibodies: The cell lines described in paragraph [001066] (“FACS screening of PPE”) were mixed with FACS buffer containing the purified anti-HIDE1 IgGs or isotype controls. […] Cells were washed again and fluorescence was detected using an Intellicyt HTFC screening system (Intellicyt). Data were analyzed using FCS Express (DeNovo) and plotted for affinity calculations (KD) in GraphPad Prism (GraphPad Software, Inc.). Note that each anti-HIDE1 antibody was tested over a titration range from 0-80 μg/mL.
(§2) Overview of FACS binding results for human IgG4 antibodies reformatted from Fab screening hits. […] IgGs from the same H-CDR3 family are indicated by the same color, either blue or green. CPA.12.003 & CPA.12.008 have identical heavy chain CDR-3 regions and minor differences in framework regions or other CDRs. The same holds for CPA.12.004 & CPA.12.013. N.B. not binding.

Row | Binder | Kd [nM]
1 | B1 | 18
2 | B2 | 1.4
3 | B3 | 4
4 | B4 | 6.4
5 | B5 | 61

Target: T3, HIDE1_HH-1 (Human ECD + human IgG1 Fc mutated C220S at hinge), without SP (human)
T3 construct: Batch #280 in the Serotec and phage display work; also called HIDE1 hECD-hIg; HIDE1 (H:H) recombinant Fc fusion protein
T3 sequence (chain, as listed by the source C220S C220S limits assumed): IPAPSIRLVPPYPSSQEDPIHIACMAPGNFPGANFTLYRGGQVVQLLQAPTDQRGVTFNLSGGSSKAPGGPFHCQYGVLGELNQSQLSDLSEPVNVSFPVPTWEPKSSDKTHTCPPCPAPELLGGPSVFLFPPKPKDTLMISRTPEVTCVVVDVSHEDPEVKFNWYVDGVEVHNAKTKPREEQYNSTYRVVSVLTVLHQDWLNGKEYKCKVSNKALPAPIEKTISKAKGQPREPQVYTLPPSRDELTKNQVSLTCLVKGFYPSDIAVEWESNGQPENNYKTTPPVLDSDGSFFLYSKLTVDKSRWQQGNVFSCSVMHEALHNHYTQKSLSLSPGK
Assay: SPR (ProteOn), Fab PPE over captured HIDE1-HH-1, 1:1 fit
Method: Preliminary Fab binding kinetics were determined using Fab PPEs produced as described in paragraph [001064] (“Fab PPE production”)[001064]. Studies were conducted using Biacore 3000 and ProteOn XPR 36 instruments at 22° C.
A high density goat anti-human Fc antibody (Invitrogen) was immobilized by standard amine coupling over all lanes of a GLC chip using a ProteOn XPR 36 biosensor (Biorad). This surface was used to capture the recombinant HIDE1-H:H fusion protein (GenScript Lot 393383-21, batch #280) or a control Fc fusion protein (CD155, Sino Biologicals) in the vertical flow-cell direction at a concentration of ˜0.5 μg/mL for 90 seconds.

Row | Binder | Kd [nM] | koff [s⁻¹] | kon [M⁻¹ s⁻¹]
6 | B6 | 1 | 0.0014 | 1.4e+06
7 | B7 | 0.91 | 0.00022 | 250000
8 | B8 | 0.64 | 0.00019 | 290000
9 | B9 | 2.1 | 0.0033 | 1.6e+06
10 | B10 | 2.3 | 0.001 | 440000
11 | B11 | 1.6 | 0.00034 | 210000
12 | B12 | 37 | 0.0037 | 99000
13 | B13 | 8 | 0.00083 | 100000
14 | B14 | 3.9 | 0.00027 | 68000
15 | B15 | 1.2 | 0.00081 | 670000

Target: T2, mouse HIDE1
Assay: FACS on 293T-moHIDE1 cells, human IgG4
Method: as §1, §2

Row | Binder | binding result
16 | B1 | no binding (tested: titration 0-80 µg/mL)
17 | B2 | no binding (tested: titration 0-80 µg/mL)
18 | B3 | no binding (tested: titration 0-80 µg/mL)
19 | B4 | no binding (tested: titration 0-80 µg/mL)
20 | B5 | no binding (tested: titration 0-80 µg/mL)
